Positions of bridges follow the written chain, without caps; N, C: chain ends. Non-standard residues stand in square brackets, D forms with d. No end group written: not given here. Aib = CC(C)(N)C(=O)O
B1: HBS 7^mut (peptide)
peptide: AEGIYRLELLKAEAAA
modifications: staple (positions not given here); also: HBS: N-terminal main-chain i,i+4 H-bond replaced by C-C bond (ring-closing metathesis), residues 1-4
B2: HBS 8 (peptide)
peptide: FEGIYRLELLK
modifications: staple (positions not given here); also: HBS: N-terminal main-chain i,i+4 H-bond replaced by C-C bond (ring-closing metathesis), residues 1-4
B3: HBS 7 (peptide)
peptide: FEGIYRLELLKAEEAN
modifications: staple (positions not given here); also: HBS: N-terminal main-chain i,i+4 H-bond replaced by C-C bond (ring-closing metathesis), residues 1-4
B4: HBS 1 (peptide)
peptide: FEGIYRTDILRTEEGN
modifications: staple (positions not given here); also: HBS: N-terminal main-chain i,i+4 H-bond replaced by C-C bond (ring-closing metathesis), residues 1-4
B5: HBS 9 (peptide)
peptide: FEGLLRLWLRK[Aib]EEAN
modifications: staple (positions not given here); not fully specified (C-terminus, bridges); also: hydrogen bond surrogate: N-terminal main-chain i,i+4 H-bond replaced by C-C bond
B6: HBS 15^ (peptide)
peptide: FEAIYRLEKLKAEEAN
modifications: staple (positions not given here); lactam 9-13; also: HBS: N-terminal main-chain i,i+4 H-bond replaced by C-C bond (ring-closing metathesis), residues 1-4
B7: HBS 6 (peptide)
peptide: FEGIYRTELLKAEEAN
modifications: staple (positions not given here); also: HBS: N-terminal main-chain i,i+4 H-bond replaced by C-C bond (ring-closing metathesis), residues 1-4
B8: HBS 11 (peptide)
peptide: FEGIYRLELLK[Aib]EE[Aib]N
modifications: staple (positions not given here); not fully specified (C-terminus, bridges); also: hydrogen bond surrogate: N-terminal main-chain i,i+4 H-bond replaced by C-C bond
B9: HBS 16 (peptide)
peptide: FEGIYRLEKLKAEEANRR
modifications: staple (positions not given here); also: HBS: N-terminal main-chain i,i+4 H-bond replaced by C-C bond (ring-closing metathesis), residues 1-4
B10: HBS 12 (peptide)
peptide: FEGLLRLWLRKAEEAN
modifications: staple (positions not given here); also: HBS: N-terminal main-chain i,i+4 H-bond replaced by C-C bond (ring-closing metathesis), residues 1-4
B11: HBS 13 (peptide)
peptide: FEAIYRLELLKAEEAN
modifications: staple (positions not given here); also: HBS: N-terminal main-chain i,i+4 H-bond replaced by C-C bond (ring-closing metathesis), residues 1-4
B12: HBS 10 (peptide)
peptide: FEGLLRLWLRK[Aib]EE[Aib]N
modifications: staple (positions not given here); not fully specified (C-terminus, bridges); also: hydrogen bond surrogate: N-terminal main-chain i,i+4 H-bond replaced by C-C bond

Each binder was assayed against Ras (residues 1-166 of human Ha-Ras) (human, UniProt P01112 1-166) (assay: cell-based or functional assay).

Row | Binder | % Inhibition (Sos-mediated nucleotide exchange from Ras, mantGDP) [%]
1 | FEAIYRLELLKAEEAN [Peptide 13] | 40
2 | FEGLLRLWLRKAEEAN [Peptide 12] | 50
3 | B1 | 15
4 | FEGIYRLELLK[Aib]EE[Aib]N [Peptide 11] | 30
5 | FEGIYRTDILRTEEGN [Peptide 1] | 13
6 | FEGIYRLELLKAEEAN [Peptide 7] | 37
7 | B2 | < 5
8 | FEGLLRLWLRK[Aib]EE[Aib]N [Peptide 10] | 50
9 | AEGIYRTDILRTEEGN [Peptide 3] | < 10
10 | B3 | 64
11 | FEGIYRTELLKAEEAN [Peptide 6] | 20
12 | B4 | 11
13 | B5 | 35
14 | B6 | < 10
15 | FEGIYRTDILR [Peptide 5] | < 10
16 | B7 | 40
17 | FEAIYRLEKLKAEEAN [Peptide 15] | 50
18 | B8 | 20
19 | B9 | 56
20 | B10 | 55
21 | B11 | 50
22 | B12 | 60
23 | FEGIYRLELLK [Peptide 8] | < 5
24 | FGEGIYRTDILRTEEGN [Peptide 2] | < 10
25 | AEGIYRADILRTEEGN [Peptide 4] | < 10

— patent US10221215 (NEW YORK UNIVERSITY, dated 2019)
